PMC12803513

Biological target: microtubules (polymers of alpha- and beta-tubulin) of Drosophila head lysate (D. melanogaster (endogenous in adult fly heads)) (UniProt P06603)
Test: co-sedimentation; in vivo microtubule-binding assay: 50 wild-type fly heads homogenised in Buffer-C+ (50 mM HEPES pH 7.1, 1.0 mM MgCl2, 1.0 mM EGTA, protease and phosphatase inhibitors) with 20 uM Taxol; 100,000 x g for 30 min through a 50% sucrose cushion; pellet blotted with anti-Pfdn5 and anti-ace-tubulin

Chain of UniProt P06603 (P06603 whole entry, chain 1 of 2): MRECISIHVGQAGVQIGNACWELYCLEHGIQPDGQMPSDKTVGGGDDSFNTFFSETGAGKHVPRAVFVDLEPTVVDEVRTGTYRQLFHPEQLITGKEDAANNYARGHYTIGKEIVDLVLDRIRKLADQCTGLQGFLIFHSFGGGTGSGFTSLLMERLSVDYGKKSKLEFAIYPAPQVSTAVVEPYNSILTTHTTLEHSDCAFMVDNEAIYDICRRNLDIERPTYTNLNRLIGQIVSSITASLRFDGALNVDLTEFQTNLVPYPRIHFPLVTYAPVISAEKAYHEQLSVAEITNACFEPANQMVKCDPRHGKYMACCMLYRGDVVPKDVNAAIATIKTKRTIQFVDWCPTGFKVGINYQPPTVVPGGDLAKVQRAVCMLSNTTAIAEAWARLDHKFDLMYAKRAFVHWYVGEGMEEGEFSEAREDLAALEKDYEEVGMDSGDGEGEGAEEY
Chain of UniProt P06603 (Q24560 whole entry, chain 2 of 2, further chain): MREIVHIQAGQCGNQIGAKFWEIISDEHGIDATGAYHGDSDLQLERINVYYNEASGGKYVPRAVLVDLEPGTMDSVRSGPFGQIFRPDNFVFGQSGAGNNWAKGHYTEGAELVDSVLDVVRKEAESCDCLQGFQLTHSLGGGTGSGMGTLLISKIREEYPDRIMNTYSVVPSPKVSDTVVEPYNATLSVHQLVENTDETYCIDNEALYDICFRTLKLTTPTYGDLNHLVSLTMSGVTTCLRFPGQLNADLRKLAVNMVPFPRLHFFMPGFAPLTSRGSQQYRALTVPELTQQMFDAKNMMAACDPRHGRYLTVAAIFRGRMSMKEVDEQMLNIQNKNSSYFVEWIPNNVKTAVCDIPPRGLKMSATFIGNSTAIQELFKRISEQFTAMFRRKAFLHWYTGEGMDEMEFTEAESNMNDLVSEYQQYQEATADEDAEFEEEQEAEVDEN

percentage of Pfdn5 in the pellet fraction: 36.7%
B1: Prefoldin 5 (natural protein)
chain: MAATPSAPAKSEMIDLTKLSPEQLIQIKQEFEQEITNVQDSLSTLHGCQAKYAGSKEALGTFQPNWENRQILVPLTSSMYVPGRVKDLNRFVIDIGTGYYIEKDLEGSKDYFKRRVEYVQEQIEKIEKIHLQKTRFYNSVMSVLEMKQAAAAKLQSQQQSQPAVTQSS
